# Data as given in the domain aggregation screens of Martell et al. (2025).
# Assay: soluble fraction after stress (log2 fold change); higher = more stays soluble; pooled small domains, quantitative proteomics
# Conditions: stress: 50 degC
# Method in brief: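 Quantitative proteomics served as the high-throughput read-out for pooled custom libraries of small protein domains. Each was stressed at 50°C. Aggregation propensity is expressed as the base-two log fold change in soluble protein after stress. A higher value means a larger share of the protein remains in solution.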
row,Sequence,soluble fraction (log2)
1,HMGSTVRIVVPAADIPAYKDIQPSDLEYREVPKDEISEDAVTDPQEVINKYSTSPLYAGWPINKNIIET,0.0298
2,HMGSYANAWQLAEHAAKDMLGEVIYLLDGKEVHAGILETMSAESIKTASAENVDGKVVIRLVSK,-0.0617
3,HMGSYIGEAKAKEIALSHAGVSASQATFVRSQFEYDDGRAVYDVDFWSGNKEYDYEIDAKSGTIVSYDFD,-0.398
4,HMGSYVVQLGAFAIRANAEKLAREVDGSIATSGRFSLVRVGPFTSRGQAEQALAKLRARGYSDALIHSL,-0.224
5,HMGTDFRPVFQYVDELVRAGEFTNLKGMIYFTDGRGIFPEKKPDYDAAFVFLDDGYDPPDVPVWAIKLVL,-0.161
6,HMGTGSSAERITMLNSILERQIQAMEIQGNPDAPIVNIQKIYTTLQRIVETAGLKDVDQFFMNPLQGQKEM,-0.253
7,HMGTIRAPMPGTILKINVVDGDSVTKGDVLLILESMKMENSITSPKTGSVTSVYVSEGDPVQHGETLIDL,-0.147
8,HMGTISKRINPSGTTVYRAVIRIRKNGYPNFTESRTFSKKSMAAEWVKRREAEIELNPDILFG,-2.13
9,HMGTLSLLVQKLMAVGLEGAKASEIVERFDRERIERQINALPSRKIKSSRTGFLIRAIELDIPVE,-2.09
10,HMGTPKMPLSLYLSMVENLRSLKRFALVNQQVKDGFVFFNDVAGIKRLQELLNYHNTGEKPSE,-1.39
11,HMGTRIQAVMEDIQSRIAARTYLPGTRLPSVRAQAQAMQVSVSTVVEAYERLAAEGVIASRPGSGFYVAGP,-1.44
12,HMGTRPAYAADAPNPQKRFIYHRIVDQLRNKATGAPISYRAIAAETGVSVQTVINIKNRMNQMLSEK,-0.0598
13,HMGTRPIQIASFSKEENAKRAVEALAKIGITAQPQKSGSATKAVWGVVANGDADLLAKIKAAGFADAYFL,0.0667
14,HMGTRTILGIDPGSRKTGFGIIRLDGSRTHYVSSGVIRIPDTALPERLKIIFASLNEIIQQFQPQEV,0.0673
15,HMGTRYVEFVIPGTGNHEVRIVSSNGSRQNVEVAGTYPGGARLRTKVDNGVRRVSFYVDNRLVEEKQ,0.0416
16,HMGTSFKITFYKDAFQVDDGPIRMLNDPANQKFVDEVSQGYAPKELIGQGGKAPEIDIIDKRSENAPT,0.128
17,HMGTVFTDIMTDIASGKFPNVFPDSLEAQIQKNVTMAPDKLSATLQYGDKSVILPTTKGKEAAEAAVKAA,-0.0555
18,HMGTYTSALDGIKGLGKKRKMLLLNTYKSIDVLKSVPLTELSQLIPREVAEALLTKLNRVDD,-0.118
19,HMGVDASVDSKLDLLSQVLDSDQVKEQLPEAVLEQLAQNLDRWRSLHEESELQDDDIAELNRLLGLFGLG,0.0425
20,HMGVEKHLRITGTSTVSWKDAIVQAVAEASKTIDYLSNVKIIEQRARIDGKKLVEYFVDLDLSFVID,-0.0917
21,HMGVGITAPLAGNIFKIVVQPGDVVASGDVVLVLEAMKMETEIRAASGGTVSQVLVREGDAVDAGHTLITL,-0.764
22,HMGVGVTAPLAGNIFKIVKQPGDVVASGDVVLILEAMKMETEIRAAAGGTVKQVLVREGDAVDAGHTLMTL,-0.309
23,HMGVHSVVPDIKNKHYGEAKAILAANGLSIEISDSIYDRSVAPGTVVESWPKAGAIVKGDRAVFVTLTAF,-1.28
24,HMGVMTGAEFVGNTVASVERNLIIDTLKHTMGNRTTAANILGISIRTLRNKLKQYQNEGFDIPE,-0.703
25,HMGVPELHKGEIVQAVVEKVLGEGLLRVNLKGMTVEAATSLRLNPGQQLLLRSEGIENGRQVLR,0.00868

row,Sequence,soluble fraction (log2)
1,HMGVQKGKDNALAVQQWIAERDATGDFGEYERRGIINRSALFDELGIPRSSMGSNDQIRQMIEAADVRWF,-0.189
2,HMGVREIIVQFLEQFDKPKSVQEIVEYVLRYRNTTENSIRSTMYSGSQFRQFDNGYFGLSDKSYPNEYIYA,-0.603
3,HMGVRLAPEVDRIPYGQMHPNLKKVKDLYEASYKAYVQALSSGNQALAKEKLEEFQSTKARYQRALSAYT,0.189
4,HMGVRVEVDAVTPPGAMASGSVVFSDGESKKWSVDQFGRLAMTGGAPDYKPSDQDVMEFQQQLEQSL,0.054
5,HMGVSAGQVRGLIRNLIAGEDKSKPLSDLALERELEKREIRISRRTVAKYRAELGIPNSDQRRYLP,-0.642
6,HMGVSLKEIQENLSLIDDAAQKLASGQGTVDDAVGMGNAGKDIYDNIEGYVSSPKEFINGVLSSV,-0.104
7,HMGVSVNVQPAILDWAMQKAQMGNAGSSVIEMIAKWISGEKAPTFNQIEDVSKKISIPFGFFFLKEPPIE,-0.951
8,HMGVTGYPNPTREHITWDDARRIEVWNAYGVPVADLRFARGVLDVAGWPVGTYVARIDGGRSVRFVVI,-0.19
9,HMGVTVDEVHRNFESGMNVVHKKFGAGVVDSFDEGKIRINFDGVIKVFIADVLINSGMLESVSYTH,-0.212
10,HMGWEDLVGKTAVVKVALAPVGMVFFRGEFWSAISETGRIEPGEEVTISRIDGLKLYVTKKRIM,-0.607
11,HMGWEPTPVLVAARDISGGTVLDQDMLRVEAIPSRLVTPSIVRSDLLASVQDAKLLLPMKQGDLLNFNMLQ,-0.064
12,HMGWVMLVIMSRGASEAQINAVVEKIRAAGLTEHLSKGIERTIIGAIGEERKLEPEVFELLPGVEQALHIV,-0.342
13,HMGYDSYDADTIPKLKIGSIVEHPKFGEGSIISKAGAEVTIAFKIKGVKKINLEYTSIKVLK,-0.935
14,HMGYGEQEQEAQKYLALHALMSQDPTLAKMYQAPNQYKLMSHVMEQNGIKNVNDYLTDPQQLP,-0.00068
15,HMGYKDIDKLSGVDLAIYRFIVEHDEQIPYMRVRELARGAHVSNSSVMRFIRKIGYDSFPEFKVSLRS,0.0102
16,HMGYPGLGSIGSKPLGDLLFQSKLFVKTKREFAEFKMANNNIVWGRRTQYLVRNYPLSVMEVFL,-0.0279
17,HMHAGQIISQKIKESGISISHVAKHLKVQRATLYNLFEREVWPAHRLRTIEALLHIDLSDLYP,-1.62
18,HMHANAALTPRQRLRLAQKIVDEEWTVAAAADYFRVSWPTAAKWARRYVELGEAGMADRSSRP,-2.1
19,HMHDEKHHQLANEIARKWAALRGNRDFAAADELKNLAAEAGVELQATKQAVGQGALAKLKENFDPVKLEAL,0.188
20,HMHDLDALTGLSGEARSKVYEEGSVFVAGEMWSAKSDAVIPAGSSIRVVRREGFILVVEKDS,-1.12
21,HMHDYTTIIGVIELRLNKISYDNVQKRYRIGRSGISLIMERYRDSGLSLDDLKQMPAEKVVNLIYPKD,-0.954
22,HMHDYYDSIDAVTHDKSYESNLVFALKLGYTETQLQKALLKLGKKAREDQILEELIRIQKSSKA,0.114
23,HMHEGNWTLPNPMPIGTTLTLPEHSRLYISNLAGQRVFETSATSVEIPLLPKGTYLLRLETMNGHTTRKIL,-0.0423
24,HMHELKIEKVAEAPNGAMRLLLSDGSEWVLGVKSWNRLNLSLEKILDVNVLRALEKESQYHLLRTKALEL,-0.395
25,HMHFIMEYRIRAYVDELFESAPRTQRAYELKIELTQNLIDKYYALVSEGKSEQDAYNLTVMSIGDVREL,-0.298
